Source: patent publication CN114790245A (CHENGDU KANGHONG BIOLOGICAL TECH CO LTD, dated 2022)

Tests used:
[1] = biological target: T1, 血浆激肽释放酶(plasma kallikrein,PK) (human, UniProt P03952 20-638); assay: cell-based or functional assay
[2] = biological target: T1, 血浆激肽释放酶(plasma kallikrein,PK); assay: cell-based or functional assay; remark: listed apart in the source

T1 sequence (P03952 20-638 limits assumed): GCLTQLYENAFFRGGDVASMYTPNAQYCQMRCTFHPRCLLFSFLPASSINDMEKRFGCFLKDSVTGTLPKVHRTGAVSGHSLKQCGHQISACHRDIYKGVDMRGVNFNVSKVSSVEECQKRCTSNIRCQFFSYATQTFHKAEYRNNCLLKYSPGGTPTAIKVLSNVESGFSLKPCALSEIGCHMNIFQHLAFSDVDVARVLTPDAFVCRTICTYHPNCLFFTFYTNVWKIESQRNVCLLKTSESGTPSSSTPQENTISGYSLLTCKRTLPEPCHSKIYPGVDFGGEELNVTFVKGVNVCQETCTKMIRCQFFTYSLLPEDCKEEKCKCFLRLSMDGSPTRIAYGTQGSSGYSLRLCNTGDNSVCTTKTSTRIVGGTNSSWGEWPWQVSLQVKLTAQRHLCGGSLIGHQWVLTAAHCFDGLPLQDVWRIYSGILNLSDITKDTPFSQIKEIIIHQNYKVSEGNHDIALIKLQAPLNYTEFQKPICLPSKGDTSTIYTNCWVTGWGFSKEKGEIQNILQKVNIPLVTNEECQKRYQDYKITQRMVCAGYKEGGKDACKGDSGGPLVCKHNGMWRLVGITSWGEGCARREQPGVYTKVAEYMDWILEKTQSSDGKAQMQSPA

IC50(nM), PK activity in human plasma activated with Factor XIIa (H-Pro-Phe-Arg-AMC) [1] | IC50(nM), PK enzyme activity on H-Pro-Phe-Arg-AMC (fluorescence) [2] | Binder
0.419 nM |  | KH18 (antibody, human IgG4 S228P, kappa, V domains shown) VH: QVQLLESGAELVRPGSSVKISCKASGYAFTNYWMHWVKQRPGQGLEWIGAIYPGDSDTSYNQKFKGKATLTADESSSTAYMQLSSLRSEDSAVYSCARERAYYRYDEDFDYWGQGTTVTVSS VL: DIQMTQSPSSLSASVGDRVTITCSATSIINSNYFHWYQQKPGKAPKLLIYRTSNLASGVPSRFSGSGSGTDFTFTISSLQPEDIATYYCQQGSSLPRTFGGGTKLEIKR
 | 0.221 nM | KH13 (antibody, human IgG1, kappa, V domains shown) VH: QVQLVQSGAEVKKPGASVKVSCKASGYTFTNYWMHWVRQAPGQGLEWMGAIYPGDSDTSYNQKFKGRVTMTRDTSTSTVYMELSSLRSEDTAVYYCARERAYYRYDEDFDYWGQGTLVTVSS VL: DIQMTQSPSSLSASVGDRVTITCSATSIINSNYFHWYQQKPGKAPKLLIYRTSNLASGVPSRFSGSGSGTDFTFTISSLQPEDIATYYCQQGSSLPRTFGGGTKLEIKR
 | 0.23 nM | KH16 (antibody, human IgG4 S228P, kappa, V domains shown) VH: EVQLVQSGAEVKKPGATVKISCKVSGYTFTNYWMHWVQQAPGKGLEWMGAIYPGDSDTSYNQKFKGRVTITADTSTDTAYMELSSLRSEDTAVYYCTRERAYYRYDEDFDYWGQGTLVTVSS VL: DIQMTQSPSSLSASVGDRVTITCSATSIINSNYFHWYQQKPGKAPKLLIYRTSNLASGVPSRFSGSGSGTDFTFTISSLQPEDIATYYCQQGSSLPRTFGGGTKLEIKR
0.93 nM | 0.87 nM | KH19 (antibody, V domains shown) VH: EVQLQQSGAEVVRPGASVKLSCKPSGFNIKDYYMFWLRQRPDQGLEWIGRIDPENGNTVYDPRFQDRASITAVTSSNTAFLQVNSLTSEDTAVYYCARAGSIPSYWGQGTLVTVSA VL: DIQMTQSPSSLSASLGDKITITCKASQDINKYIAWYQHKPGKGPRLLIHYTSSLHQDIPSRFSGSGSGRDYSFSISNLEPEDFAIYYCLQYDDLWTFGGGTKVEIK
 | 0.398 nM | KH14 (antibody, human IgG1, kappa, V domains shown) VH: QVQLVQSGAEVKKPGASVKVSCKASGYTFTNYWMHWVRQAPGQGLEWMGAIYPGDSDTSYNQKFKGRVTMTRDTSTSTVYMELSSLRSEDTAVYYCARERAYYRYDEDFDYWGQGTLVTVSS VL: EIVLTQSPAIMSASPGERVTMTCSATSIINSNYFHWYQQKPGTSPRRWIYRTSNLASGVPARFSGSGSGTDYSLTISSMEPEDAATYYCQQGSSLPRTFGGGTKLEIKR
 | 0.224 nM | KH15 (antibody, human IgG4 S228P, kappa, V domains shown) VH: EVQLVQSGAEVKKPGATVKISCKVSGYTFTNYWMHWVQQAPGKGLEWMGAIYPGDSDTSYNQKFKGRVTITADTSTDTAYMELSSLRSEDTAVYYCTRERAYYRYDEDFDYWGQGTLVTVSS VL: EIVMTQSPPTLSLSPGERVTLSCSATSIINSNYFHWYQQKPGQAPRLLIYRTSNLASGIPARFSGSGSGTDFTLTISSLQPEDFAVYYCQQGSSLPRTFGGGTKLEIKR
1.29 nM | 0.82 nM | KH21 (antibody, V domains shown) VH: EVQLQQSGAELVKPGASVKLSCTGSGFNIKDIYMFWVKQRPEQGLEWIGRIDPENGNIKYDPKFQGKATITAETSSNTVYLQLNSLTSEDTAVYYCSRGGGLFAYWGQGTLVTVSA VL: DIQMTQSPSSLSASLGGKVTITCKASQDINKYIAWYQHKPGKGPRLLIHYTSTLQPGIPSRFSGSGSGSDYSFSISTLEPEDIATYYCLQYDDLWTFGGGTKLEIK
1.09 nM | 1.1 nM | KH20 (antibody, V domains shown) VH: not shown VL: DIKMTQSPSSMSASPGERVTITCKASQDINSYLSWFQQKSGKFPKTLIYRANRLVDGVASRFSGSGSGQDYSLTISSLDYEDMGIYYCVQYDEFPLTFGAGTKLELK

Second part, the binder before the results:

Binder | IC50(nM), PK activity in human plasma activated with Factor XIIa (H-Pro-Phe-Arg-AMC) [1] | IC50(nM), PK enzyme activity on H-Pro-Phe-Arg-AMC (fluorescence) [2]
KH03 (antibody, human IgG4 S228P, kappa) heavy: not shown light: DIQMTQSPSAMSASVGDRVTITCEASHDINNYIAWYQQKPGKAPKLLIYYTSTLQSGVPSRFSGSGSGTEFTLTISNLQPEDFATYYCLQYDNLFTFGQGTKVEIKRTVAAPSVFIFPPSDEQLKSGTASVVCLLNNFYPREAKVQWKVDNALQSGNSQESVTEQDSKDSTYSLSSTLTLSKADYEKHKVYACEVTHQGLSSPVTKSFNRGEC | 0.949 nM | 
KH04 (antibody, human IgG4 S228P, kappa) heavy: not shown light: DIQMTQSPSSLSASVGDRVTITCEASHDINNYIAWYQQKPGKAPKLLIYYTSTLQSGVPSRFSGSGSGTEFTLTISNLQPEDFATYYCLQYDNLFTFGQGTKVEIKRTVAAPSVFIFPPSDEQLKSGTASVVCLLNNFYPREAKVQWKVDNALQSGNSQESVTEQDSKDSTYSLSSTLTLSKADYEKHKVYACEVTHQGLSSPVTKSFNRGEC | 0.987 nM | 
KH01 (antibody, human IgG4 S228P, kappa, V domains shown) VH: EVQLHQSGAELVKPGASVRLSCTASGFNIKDTYIFWVKQRPEQGLEWIGRIDPENDNTKFDPKIQGKATLTADTSSNTAYLQLGSLTSEDSAIYYCAKGGGLFAYWGQGTLVSVSA VL: DIQMTQSPSSLSASLGGKVTITCKASHDINKYIAWYQHKPGSGPRLLIHFTSTLQSDIPSRFSGSGSGRDYSFSISNLEPEDIATYYCLQYDNLFTFGGGTKLEIKR | 0.753 nM | 0.297 nM
KH05 (antibody, human IgG4 S228P, kappa, V domains shown) VH: EVQLQQSGAELVKPGASVRLSCTASGFNIKDTYIFWVKQRPKQGLEWIGRIDPENDNTKYDPKIQGKATLTADTSSNTAYLQLSSLTSEDSAIYYCAKGGGLFAYWGQGTLVSVSA VL: DIQMTQSPSSLSASVGDRVTITCEASHDINNYIAWYQQKPGQPPKLLIYYTSTLQSGVPSRFSGSGSGTEFTLTISNLQPEDFATYYCLQYDNLFTFGQGTKVEIKR | 0.921 nM | 
KH02 (antibody, human IgG4 S228P, kappa, V domains shown) VH: EVQLQQSGAELVKPGASVRLSCTASGFNIKDTYIFWVKQRPKQGLEWIGRIDPENDNTKYDPKIQGKATLTADTSSNTAYLQLSSLTSEDSAIYYCAKGGGLFAYWGQGTLVSVSA VL: DIQMTQSPSSLSTSLGGKVTITCEASHDINNYIAWYQHKPGKGPRLLIHYTSTLQSGIPSRFSGSGSGKDYSFSISNLEPEDIATYYCLQYDNLFTFGGGTKLEIKR | 0.52 nM | 0.235 nM
KH07 (antibody, human IgG4 S228P, kappa, V domains shown) VH: EVQLQQSGAELVKPGASVRLSCTASGFNIKDTYIFWVKQRPKQGLEWIGRIDPENDNTKYDPKIQGKATLTADTSSNTAYLQLSSLTSEDSAIYYCAKGGGLFAYWGQGTLVSVSA VL: DIQMTQSPSAMSASVGDRVTITCEASHDINNYIAWYQQKPGQPPKLLIYYTSTLQSGVPSRFSGSGSGTDFTFTISSLQPEDIATYYCLQYDNLFTFGQGTKVEIKR | 0.863 nM | 
KH11 (antibody, human IgG4 S228P, kappa) heavy: not shown light: EIVLTQSPTTMAASPGEKITITCSATSIINSNYFHWYQQKPGFSPKLLIYRTSNLASGVPARFSGSGSGTSYSLTIGTMEAEDVATYYCQQGSSLPRTFGGGTKLEIKRTVAAPSVFIFPPSDEQLKSGTASVVCLLNNFYPREAKVQWKVDNALQSGNSQESVTEQDSKDSTYSLSSTLTLSKADYEKHKVYACEVTHQGLSSPVTKSFNRGEC | 0.103 nM | 0.188 nM
KH10 (antibody, human IgG1, kappa) heavy: not shown light: EIVLTQSPTTMAASPGEKITITCSATSIINSNYFHWYQQKPGFSPKLLIYRTSNLASGVPARFSGSGSGTSYSLTIGTMEAEDVATYYCQQGSSLPRTFGGGTKLEIKRTVAAPSVFIFPPSDEQLKSGTASVVCLLNNFYPREAKVQWKVDNALQSGNSQESVTEQDSKDSTYSLSSTLTLSKADYEKHKVYACEVTHQGLSSPVTKSFNRGEC |  | 0.227 nM
KH12 (antibody, human IgG1, kappa, V domains shown) VH: QVQLVQSGAEVKKPGASVKVSCKASGYTFTNYWMHWVRQAPGQGLEWMGAIYPGDSDTSYNQKFKGRVTMTRDTSTSTVYMELSSLRSEDTAVYYCARERAYYRYDEDFDYWGQGTLVTVSS VL: EIVMTQSPPTLSLSPGERVTLSCSATSIINSNYFHWYQQKPGQAPRLLIYRTSNLASGIPARFSGSGSGTDFTLTISSLQPEDFAVYYCQQGSSLPRTFGGGTKLEIKR |  | 0.174 nM
KH09 (antibody, human IgG4 S228P, kappa, V domains shown) VH: EVQLVESGGALVKPGGSLRLSCAASGFNIKDTYIFWVRQMPRKGLEWIGRIDPENDNTKYDPKIQGKATITADTSTDTAYMELSSLTSEDTAVYYCAKGGGLFAYWGQGTLVTVSS VL: DIQMTQSPSAMSASVGDRVTITCEASHDINNYIAWYQQKPGKAPKLLIYYTSTLQSGVPSRFSGSGSGTDFTFTISSLQPEDIATYYCLQYDNLFTFGQGTKVEIKR | 0.764 nM | 
